Test: yeast display, Sf9 membrane polyspecificity reagent, FACS + sequencing; frameworks hold sequencing errors
In short: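 Genes from sorted yeast were amplified by colony PCR, read by MiSeq 2 × 250 sequencing and filtered on CDR length. These cells carried a synthetic nanobody library in Saccharomyces cerevisiae BJ5465 and were sorted by FACS into low and high (top ~1%) gates on anti-HA and streptavidin fluorescence. Polyreactivity is labelled according to the gate of origin.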

With “QVQLVESGGGLVQAGGSLRLSCAASGFTFLKNAMGWYRQAPGKERELVAAITSSGGRTYYADSVKGRFTISRDNAKNTVYLQMNSLKPEDTAVYFCIKGPLPGYDYWGQGTQVTVSS” as the sequence, how does the “polyreactivity (PSR sort gate)” value read?
The value was “high polyreactivity”.

Which “polyreactivity (PSR sort gate)” value does the source give for “QVQLVESGGGLVQAGGSLRLSCAASGFTFLLYAMGWYRQAPGKERELVAAITWSTGNTYYADSVKGRFTISRDNAKNTVYLQMNSLKPEDTAVYYCYAEYLVITWYGGVEFDYWGQGTQVTVSS” here?
Its value is “low polyreactivity”.

For “QVQLVESGGGLVQAGGSLRLSCAASGFTFLPAYAMGWYRQAPGKERELVAAITRGGSTYYADSVKGRFTISRDNAKNTVYLQMNSLKPEDSAVYYCNADQKFGFYRSVGDDYWGQGTQVTVSS”, which “polyreactivity (PSR sort gate)” value is on record?
Its value is “low polyreactivity”.

Which “polyreactivity (PSR sort gate)” value does the source give for “QVQLVESGGGLVQAGGSLRLSCAASGFTFLPYVMGWYRQAPGKERELVAGITRTGSTNYADSVKGRFTISRDNAKNTVYLQMNSLKPEDTAVYYCAARLKYWGDYYYWGQGTQVTVSS” here?
Its value is “low polyreactivity”.

With “QVQLVESGGGLVQAGGSLRLSCAASGFTFLSYAMGWYRQAPGKERELVAAISRSGGSTYYADSVKGRFTISRDNAKNTVYLQMNSLKPEDTAVYYCAARSAFRNQFSRNNYWGQGTQVTVSS” as the sequence, how does the “polyreactivity (PSR sort gate)” value read?
Its value is “high polyreactivity”.

Which “polyreactivity (PSR sort gate)” value does the source give for “QVQLVESGGGLVQAGGSLRLSCAASGFTFLWYAMGWYRQAPGKERELVAGISSDGSTYADSVKGRFTISRDNAKNTVYLQMNSLKQEDTAVYYCAAVNNSSIRDNDYWGQGTQVTVSS” here?
Its value is “low polyreactivity”.

For “QVQLVESGGGLVQAGGSLRLSCAASGFTFLYNAMGWYRQAPGKERELVAAIDSGGNTNYADSVKGRFTISRDNAKNTVYLQMNSLKPEDTAVYYCAADVVSGGQGTADYDYWGQGTQVTVSS”, which “polyreactivity (PSR sort gate)” value is on record?
The value was “low polyreactivity”.

Which “polyreactivity (PSR sort gate)” value does the source give for “QVQLVESGGGLVQAGGSLRLSCAASGFTFNAHAMGWYRQAPGKERELVAVITRSGGRTYYADSVKGRFTISRDNAKNTVYLQMNSLKPEDTAVYYCAKEGPSRVYQGTDSASDYWGQGTQVTVSS” here?
Its value is “high polyreactivity”.

Which “polyreactivity (PSR sort gate)” value does the source give for “QVQLVESGGGLVQAGGSLRLSCAASGFTFNAYAMGWYRQAPGKERELVAAINVSGGITYYADSVKGRFTISRDIAKNTVYLQMNSLKPEDTAVYYCAADVEWTSRGSYYRYYYWGQGTQVTVSS” here?
Its value is “low polyreactivity”.

Which “polyreactivity (PSR sort gate)” value does the source give for “QVQLVESGGGLVQAGGSLRLSCAASGFTFNAYAMGWYRQAPGKERELVAAINVSGGITYYADSVKGRFTISRDNAKNTVYLQMNSLNPEDTAVYYCAKGLDVVQRSEFDYWGQGTQVTVSS” here?
Its value is “low polyreactivity”.

Which “polyreactivity (PSR sort gate)” value does the source give for “QVQLVESGGGLVQAGGSLRLSCAASGFTFNFNAMGWYRQAPGKERELVAAIRWSGGNTYYADSVKGRFTISRDNAKNTVYLQMNSLKPEDTAVYYCNRVGYQSMNYWGQGTQVTVSS” here?
The value was “low polyreactivity”.

With “QVQLVESGGGLVQAGGSLRLSCAASGFTFNGNAMGWYRPAPGKERELVAAITRTGTDTSYADSVKGRFTISRDNAKNTVYLQMNSLKPEDTAVYYCAAPPYNGYRYGTTGYYWGQGTQVTVSS” as the sequence, how does the “polyreactivity (PSR sort gate)” value read?
Its value is “low polyreactivity”.

Which “polyreactivity (PSR sort gate)” value does the source give for “QVQLVESGGGLVQAGGSLRLSCAASGFTFNKNAMGWYRQEPRKERELVAAISSSVGSTRYADSVKGRFTISRDNAKNTVYLQRNSLKPEDTAVYYCAVYVTPHSGWWLYDYWGQGTQVTVSS” here?
The value was “high polyreactivity”.

Which “polyreactivity (PSR sort gate)” value does the source give for “QVQLVESGGGLVQAGGSLRLSCAASGFTFNRNAMGWYRQAPGKERELVAAISRGGSTSYADSVKGRFTISRDNAKNTVYLQMNSLKPEDTAVYYCATYFRVYYSQYDYWGQGTQVTVTS” here?
The value was “high polyreactivity”.

For “QVQLVESGGGLVQAGGSLRLSCAASGFTFNRNAMGWYRQAPGKERFVAAITGSGASTYYADSVKGRFTISRDNAKNTVYLQMNSLKPEDTAVYYCNAEYYAGRYRYDYWGQGTQVTVSS”, which “polyreactivity (PSR sort gate)” value is on record?
The value was “high polyreactivity”.

Which “polyreactivity (PSR sort gate)” value does the source give for “QVQLVESGGGLVQAGGSLRLSCAASGFTFNRYAMGWYRQAPGKERELVAAITRRGGSTYYADSVKGRFTISRDNAKNTVYLQMNSLKPEYSAVYYCNVDFQAYGIPMDYWGQGTQVTVSS” here?
Its value is “high polyreactivity”.

For “QVQLVESGGGLVQAGGSLRLSCAASGFTFNWNDMGWYRQAPGKERELVAAISGGASTYYADSVKGRFTISRDNAKNTVYLQMNSLKPEDTAVYYCAADLDEWGYLFVYWGQGTQVTGSS”, which “polyreactivity (PSR sort gate)” value is on record?
The value was “low polyreactivity”.

Which “polyreactivity (PSR sort gate)” value does the source give for “QVQLVESGGGLVQAGGSLRLSCAASGFTFNWNTMGWYRQAPGKERELVAAISSGGITYYADSVKGRFTISRDNAKNTVYLQMNSLKPEDTAVYYCNVRPFRPHNRYGYWGQFTQVTVSS” here?
The value was “high polyreactivity”.

Which “polyreactivity (PSR sort gate)” value does the source give for “QVQLVESGGGLVQAGGSLRLSCAASGFTFNWYAMGWYRQAPGKERELVAAINSSGGNTYYADSVKGRFTISRDTAKNTVYLQMNSLKPDDTAVYYCVFVYVYDYYYWGQGTQVTVSS” here?
Its value is “high polyreactivity”.

For “QVQLVESGGGLVQAGGSLRLSCAASGFTFNYNAMGWYRQAPGKERELVAAISASGGTTYYADSVKGRFTISRDNAKNTVYLQMNSLKPEDTAVYYCAAPKLDDYDYWGQGTQVTVSS”, which “polyreactivity (PSR sort gate)” value is on record?
Its value is “low polyreactivity”.

Which “polyreactivity (PSR sort gate)” value does the source give for “QVQLVESGGGLVQAGGSLRLSCAASGFTFNYYAMGWYRQAHGKEREFVAAISRGGGRTYYADSVKGRFTISRDNAKNTVYLQMNSLKPEDTAVYYCAAQSVPYAYRLASYDYWGQGTQVTVSS” here?
The value was “high polyreactivity”.

For “QVQLVESGGGLVQAGGSLRLSCAASGFTFNYYAMGWYRQAPGKERELVAAITSSGGSTYYADSVKGRFTISRDNAKNTVYLQMNSLKPEDTAVYYCNAAVYAHRYIYGFDYWGQGTQVTVSS”, which “polyreactivity (PSR sort gate)” value is on record?
Its value is “high polyreactivity”.

Which “polyreactivity (PSR sort gate)” value does the source give for “QVQLVESGGGLVQAGGSLRLSCAASGFTFNYYTMGWYRQAPGKERELVAAISGSGVSTYYADSVKGRFTISRDNAKNTVYLQMNSLKPEDTAVYYCNKLFGIYWGQGTQVTVSS” here?
The value was “high polyreactivity”.

For “QVQLVESGGGLVQAGGSLRLSCAASGFTFPGYAMGWYRQAPGNEREFVAAITWSGGRTYYADSVKGRFTISRDNAKNTVYLQMNSLKPEDTAVYYCAAVYRGTWYDYDYWGQGTQVTVSS”, which “polyreactivity (PSR sort gate)” value is on record?
Its value is “high polyreactivity”.

For “QVQLVESGGGLVQAGGSLRLSCAASGFTFPHYMGWYRQAPGKERELVAAINVSGGSTSYADSVKGRFTISRDNAKNTVYLQMNSLKPEDTAVYYCAKDLRFRLFSYPSDYWGQATQVTVSS”, which “polyreactivity (PSR sort gate)” value is on record?
The value was “low polyreactivity”.

With “QVQLVESGGGLVQAGGSLRLSCAASGFTFPIYAMGWYRQAPGKERELVAAITTRGGRTYYADSVKGRFTISRDNAKNTVYLQMNSLKPEDTAVYYCTTRGRRTDYDYWGQGTQVTVSS” as the sequence, how does the “polyreactivity (PSR sort gate)” value read?
The value was “high polyreactivity”.

For “QVQLVESGGGLVQAGGSLRLSCAASGFTFPSNGMGWYRQAPGKERELVAVIDWSDDSTYYADSVKGRFTISRDNAKNTVYLQMNSLKPEDTAVYYCNARHYLYHGYIVPKYSYGYDYWGQGTQVTVSS”, which “polyreactivity (PSR sort gate)” value is on record?
The value was “low polyreactivity”.

Which “polyreactivity (PSR sort gate)” value does the source give for “QVQLVESGGGLVQAGGSLRLSCAASGFTFPSYAMGWYRQAPGKERELVAAISYRGGRTYYADSVKGRFTISRDNAKNTVYLQMNSLKPEDTAVYYCAAKGWYFGYGRYGYWGQGTQVTVSS” here?
Its value is “high polyreactivity”.

For “QVQLVESGGGLVQAGGSLRLSCAASGFTFPSYDMGWYRQAPGKERELVAAISWSGTSTYYADSVKGRFTISRDNAKNTVYLQMNSLKPEDTAVYYCNAQYSYLWGEYGYWGQGTQVTVSS”, which “polyreactivity (PSR sort gate)” value is on record?
The value was “high polyreactivity”.

Which “polyreactivity (PSR sort gate)” value does the source give for “QVQLVESGGGLVQAGGSLRLSCAASGFTFPVNAMGWYRQAPGKERELVAAIRWIGGDTYYADSVKGRFTISRDNAKNPVYLQMNSLKPEDTAVYYCAAEDTDDYSIWYEYWGQGTQVTVSS” here?
The value was “high polyreactivity”.

Which “polyreactivity (PSR sort gate)” value does the source give for “QVQLVESGGGLVQAGGSLRLSCAASGFTFPVNTMGWYRQAPGKERELVAAISTSGAGTYYADSVKGRFTISRDNAKNTVYLQMNSLKPEDTAVYYCNADSQPGPYPGIRYDYWGQGTQVTVSS” here?
The value was “high polyreactivity”.

For “QVQLVESGGGLVQAGGSLRLSCAASGFTFPVYAMGWYRQAPGKERELVAAISSGGRTDYADSVKGRFTISRDNAKNTVYLQMNSLKPEDTAVYYCNKARSDHDGRNDSWGQGTQVTVSS”, which “polyreactivity (PSR sort gate)” value is on record?
Its value is “high polyreactivity”.

For “QVQLVESGGGLVQAGGSLRLSCAASGFTFPWYAKGWYRQAPGKERELVAAITSGSSTYYADSVKGRFTISRDNAKNTVYLQMNSLKPEVTAVYYCAKDGGWSRLHYNYWGQGTQVTVSS”, which “polyreactivity (PSR sort gate)” value is on record?
The value was “high polyreactivity”.

Which “polyreactivity (PSR sort gate)” value does the source give for “QVQLVESGGGLVQAGGSLRLSCAASGFTFPWYAMGWYRQAPGKERELVAAISTSGGSTYYADSVKGRFTISRDNAKNTVYLQMNSLKPEDTAVYYCAVGRKFGRYRVPFVVPYEYWGQGTQVTVSS” here?
Its value is “high polyreactivity”.

For “QVQLVESGGGLVQAGGSLRLSCAASGFTFPYAMGWYTQAPGKERELVAGISWSGGSTYYADSVKGRFTISRDNAKNTVYLQMNSLKPEDTAVYYCNKYVQSGGTYDYWGQGTQVTVSS”, which “polyreactivity (PSR sort gate)” value is on record?
Its value is “low polyreactivity”.

For “QVQLVESGGGLVQAGGSLRLSCAASGFTFPYYAMGLYRQAPGKERELVATISSGSSTNYADSVKGRFTISRDNAKNTVYLQMNSLKPEDTAVYYCAAVRSGYSGTDGQYSKYGYWGQGTQVTVSS”, which “polyreactivity (PSR sort gate)” value is on record?
The value was “high polyreactivity”.

For “QVQLVESGGGLVQAGGSLRLSCAASGFTFPYYAMGWYRQAPGKERELVAAINSVGSTYYADSVKGRFTISRDNAKNTVYLQMNSLKPEDTAVYYCNKRPSHWRHYIMDYWGQGTQVTVSS”, which “polyreactivity (PSR sort gate)” value is on record?
Its value is “high polyreactivity”.

For “QVQLVESGGGLVQAGGSLRLSCAASGFTFPYYAMGWYRQAPGKERELVAAITSSGGSTYYADSVKGRFTISRDNAKNTVYLQMNSLKPEDTAVYYCAVDAYYYKWYDYWGQGTQVTVSS”, which “polyreactivity (PSR sort gate)” value is on record?
The value was “high polyreactivity”.

For “QVQLVESGGGLVQAGGSLRLSCAASGFTFPYYAMGWYRQAPGKERELVAGISWDGDSTYYADSVKGRFTISRDNAKNTVYLQMNSLKPEDTAVYYCAAGYITYYYGEYGYWGQGTQVTVSS”, which “polyreactivity (PSR sort gate)” value is on record?
The value was “low polyreactivity”.

With “QVQLVESGGGLVQAGGSLRLSCAASGFTFQEYAMGWYRQAPGKERELVAAITSGTTTNYADSVKGRFTISRDNAKNTVYFQMNSLKPEDTAVYYCNVRSQSGSYRVYEYDYWGQGTQVTVSS” as the sequence, how does the “polyreactivity (PSR sort gate)” value read?
Its value is “low polyreactivity”.

For “QVQLVESGGGLVQAGGSLRLSCAASGFTFQPNAMGWYRQAPGKERELVAAITWSTGRTYYADSVKGRFTISRDNAKNTVYLQMNSLKPEDTAVYYCNKRKNLLHSFEYDYWGQGTQVTVSS”, which “polyreactivity (PSR sort gate)” value is on record?
The value was “low polyreactivity”.

For “QVQLVESGGGLVQAGGSLRLSCAASGFTFQTYAMGWYRQEPGKERELVATIRTRGGSTSYADSVKGRFTISRDNAKNTVYLQMNSLKPEDTAVYYCNGRLSYRSAWYYGGDRYDYWGQGTQVTVSS”, which “polyreactivity (PSR sort gate)” value is on record?
Its value is “high polyreactivity”.

With “QVQLVESGGGLVQAGGSLRLSCAASGFTFQYYAMGWYRQAPGKERELVAAISWSGASTYYADSVKGRFTISRDNAKNTVYLQMNSLKPEDTAVYYSAAKYYRDRDWGQGTQVTVSS” as the sequence, how does the “polyreactivity (PSR sort gate)” value read?
Its value is “high polyreactivity”.

— the nanobody polyreactivity screen of Harvey et al. (2022)
